# Reference: the domain aggregation screens of Martell et al. (2025)
# Assay: soluble fraction after stress (log2 fold change); higher = more stays soluble; pooled small domains, quantitative proteomics
# Conditions: stress: 75 degC
# 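Further: 20 min heating vs room temperature control held 20 min.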
row,Sequence,soluble fraction (log2)
1,HMGESVQVPSYVGMGFREAARKARARDFGVAVSDSIYVPGKPPGEIIAQDPKAESRVKEGRTIYFTVAK,-0.109
2,HMGDEPGAGYKWREDVLLRVMSEHGIDESARDDFVRHAVKFDDDDNLYLKKAEIIAAAEAWESSS,0.359
3,HMLHVRSALMSELDGIEGIGEKRKRLLFDAFITRDAIAAATLEQLMAVKGMNRPSAEAVHKHFHG,-0.985
4,HMPAWKINQELQATVIATKANQTRLRIEGQTFETQTAIALKPGQSLLIKVVSLEPQISFALI,-2.45
5,HMFEKVKLTLTIPSKYSGSTYSALRNRMNKFSKEEWLSNGDLKIEIEVTGGQKTDIYTLINKLTNGEAIIE,-1.25
6,HMYYQEDHDIILEETEDVTDPYLITLRGYIFLNNLQWVAARQAFLSADERFRHRHYSALIAPIMQTIDNAA,0.359
7,HMNESADMPDVVNMSLEAAKSQLEGMGLKVKVENVEDDSVEENHVIKTSPVSGEKVKLGTTVTLTVSKGR,-0.116
8,HMKFLYQQVYQDIKDKITSAQYQFGDLLPSEREIGEEYHVDRTTVRKAFSLLVDEGLVEKRAGKGSVVIS,-0.74
9,HMAAPELLTVRERQVAALISDGLSNQQIAHRLHLEVTTVKAHIGSIFNRLDMNNRVQIAIWAHDRQLVFS,-0.161
10,HMDEWKRKELWDAIARLPKIQRMVVTMRTTENLPYKEIAKIMNISENSAKVNYHHAVEALKIFF,-2.84
11,HMFHDALVSFAERRVIFMKELVNRLNEARKAYYEGESIMSDKEYDNLYDKLVKMELTTGVVLPNSPTEEVG,-1.33
12,HMGIDISAFSETALQVLRLQAAGYTAKEISEKLHITPRTVKYHASQNYRKLDAKNLVDAVQIAQALHI,-1.79
13,HMEPADALVAALVARGVSPSTARITVKQYPATRIQPQLEVFDYLVAQKDPKVSRNPPGFLLSAIRGEYA,-0.718
14,HMKGSIFLDEATKMVDNSALKSLNTFLEEYARETNNQIFLISHQETPAEVTQIKLKKVGGETSYE,0.154
15,HMRTLSAGVAGRLRADILNGLLEPGRRLGMAELTERYGAGMSPVREALSRLVGEGLVQSEGQRGFRVA,-0.446
16,HMNNIIYLIANKLDVGKRLDQFITIRTEFSRQRVINLIEDGYVKLNNKIINLKKYKIKGDEKIEITIPEIR,-1.32
17,HMKTIQVGSTVRVNQGAKTYSGGGLASFVYKRNHKVSQLQGDRAVITYEGTVVAAVHVSDLSLIH,-0.192
18,HMDAATDAIKAEVRALLEMANAQGIDTESIMLEAHEQTRNATEQDYYEAAKSALEAAIAGSNRDR,0.435
19,HMSTMTEQEAFGLWERINDFIARTGNEPNRNSNDAHEVRMAEALNFIRIKVAEQRNSQSNSEAQNN,-0.263
20,HMGYSDEIGEFIKKLRTENHLTQKEFADKYGVTYQAVSKWENGKNLPDMSLIKQMSEDFNIGIDELLDGEK,-0.00865
21,HMIETLGDATFKRLKAMILDGTLEPGTRLSEKKFADHLGVSRTPVREAIGQLVSEGLAKRSAGSAPVVSS,-0.0859
22,HMFAGEWKQDASGWWYQNDDGSFTRNGWQNISGKQYYFNENGYMLHDTTTPDGKQVGSDGSLV,0.0573
23,HMNVDSLIGQTARVIVDINNNDSIGYALVGGQEWTARAENDNDIIPKDTLVEIVGVSGVKLIVRRKE,0.0563
24,HMGTYSKQDLLQLIGRYPDGIGKREINLAFSKGTKIRNLLNIELNELLNERLITLSQGGLYIKP,-1.92
25,HMRGAIKMAEEQMAGHKKIGSISGTAPTQGELEKKFAMAAAQMGARYYVITGLSNNNYAFGNADIY,-0.669
26,HMDNRLFKMLYYLLDKERATAPELAAEFEVSTRTIYRDVEALSSAGIPIYAEPGRNGGIYLLQD,-2.3
27,HMSYSYIYNYALKVKMDISSTGGKKPYAYYYYDHSYKLAEEILSLSEETESIELQNKYDELKDFYENP,-1.79
28,HMASLASVAYETLRQALDNFQYVPGDRFSESEVGQQLGMSRTPVREALVRLQREGYISVLPKMGWVVNQ,-1.86
29,HMARKTIFHSLLGELEQRIGRLPAGTILPAEQALADEYGVSKPTLRRALAELAEHGLITKENGIGSVVI,-0.577
30,HMGKPTPASQVATRWLTGNLPESLPVAGPAPSFEALARTVSTDLHPRSVLQELVRLGVAEEANGVVTLRRQ,0.0474
